Blank lines part the entries; values can stand above or below the binder they belong to.
Key:
HER2 on BT474 cells [1] = target: T1, HER2 on BT474 cells (human, UniProt P04626 23-1255); assay: cell-based or functional assay
human HER2 [2] = target: T2, human HER2 (human, UniProt P04626 23-652, limits assumed); assay: SPR, global fit over several concentrations; Protein #21-His
T2 construct: This is HER2 as used in the surface plasmon resonance experiments; also called ErbB2; Human Epidermal Growth Factor Receptor 2
Method: (§1) Its affinity to HER2 was assessed by surface plasmon resonance as described in WO2014/083208.

human HER2 [3] = target: T2, human HER2; assay: SPR
human serum albumin [4] = target: T3, human serum albumin (human, UniProt P02768 25-609); assay: SPR; Protein #21 at 100 nM
T3 construct: also called HSA

[5] = target: T4, extracellular domain of EGFR (UniProt P00533 25-645); assay: surface plasmon resonance
T4 construct: extracellular domain; also called ErbB1; HER1

[6] = target: T5, extracellular domain of HER3 (UniProt P21860 20-643); assay: surface plasmon resonance
T5 construct: extracellular domain; also called ErbB3

HER2 on BT474 cells [7] = target: T1, HER2 on BT474 cells; assay: cell-based or functional assay; remark: listed apart in the source
[8] = target: cynomolgus monkey serum albumin (cynomolgus monkey, UniProt A2V9Z4 25-608); assay: ProteOn SPR, PBS pH 7.4
human serum albumin [9] = target: T3, human serum albumin; assay: ProteOn SPR, PBS pH 7.4
mouse serum albumin = mouse serum albumin (mouse, UniProt P07724 25-608); assay: ProteOn SPR, PBS pH 7.4
human HER2 [10] = target: T2, human HER2; assay: SPR, global fit over several concentrations; Protein #23-His
Method: as §1

Chain of cynomolgus monkey serum albumin (A2V9Z4 25-608 limits assumed): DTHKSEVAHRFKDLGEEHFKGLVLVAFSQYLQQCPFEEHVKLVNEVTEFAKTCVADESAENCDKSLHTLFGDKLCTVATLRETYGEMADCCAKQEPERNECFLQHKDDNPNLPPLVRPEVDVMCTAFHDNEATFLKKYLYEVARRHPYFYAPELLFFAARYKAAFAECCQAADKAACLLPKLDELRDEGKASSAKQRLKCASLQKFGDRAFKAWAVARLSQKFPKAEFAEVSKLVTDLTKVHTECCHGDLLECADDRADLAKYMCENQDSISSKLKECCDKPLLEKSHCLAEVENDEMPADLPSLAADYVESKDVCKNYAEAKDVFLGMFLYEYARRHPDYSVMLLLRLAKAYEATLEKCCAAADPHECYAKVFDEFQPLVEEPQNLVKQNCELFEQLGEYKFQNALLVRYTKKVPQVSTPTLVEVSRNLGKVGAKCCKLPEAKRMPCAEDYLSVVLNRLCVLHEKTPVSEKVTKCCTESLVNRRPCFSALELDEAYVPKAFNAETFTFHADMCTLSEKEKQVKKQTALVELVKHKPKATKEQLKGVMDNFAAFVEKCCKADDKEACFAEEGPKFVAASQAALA
Chain of mouse serum albumin (P07724 25-608 limits assumed): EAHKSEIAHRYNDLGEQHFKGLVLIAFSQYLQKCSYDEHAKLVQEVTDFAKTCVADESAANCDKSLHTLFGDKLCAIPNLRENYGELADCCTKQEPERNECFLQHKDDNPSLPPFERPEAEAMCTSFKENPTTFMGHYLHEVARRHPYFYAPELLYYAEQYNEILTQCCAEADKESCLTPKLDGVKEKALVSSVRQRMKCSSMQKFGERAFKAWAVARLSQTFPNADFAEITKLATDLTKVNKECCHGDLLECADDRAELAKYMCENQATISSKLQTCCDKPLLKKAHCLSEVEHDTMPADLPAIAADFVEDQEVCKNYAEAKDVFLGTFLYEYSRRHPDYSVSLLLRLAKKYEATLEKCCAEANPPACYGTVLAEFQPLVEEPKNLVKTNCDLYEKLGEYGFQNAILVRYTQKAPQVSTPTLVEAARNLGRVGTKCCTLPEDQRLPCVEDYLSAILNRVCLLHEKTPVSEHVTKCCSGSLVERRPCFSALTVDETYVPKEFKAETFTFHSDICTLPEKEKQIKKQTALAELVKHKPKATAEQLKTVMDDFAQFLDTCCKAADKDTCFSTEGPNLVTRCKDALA

B1: Protein #21-His (designed binder)
chain: MRGSHHHHHHGSDLGKKLLEAARAGQDDEVRELLKAGADVNAKDYFSHTPLHLAARNGHLKIVEVLLKAGADVNAKDFAGKTPLHLAANEGHLEIVEVLLKAGADVNAQDIFGKTPADIAADAGHEDIAEVLQKAAGSPTPTPTTPTPTPTTPTPTPTGSDLGIKLLFAAAKGQDDEVRELLKAGADVNAKDFQGVTPLHIAAQSGHLEIVEVLLKAGADVNAKDVTGDTPLHLAAQHGHLEIVEVLLKAGADVNAQDERGWTPADLAADWGHEDIAEVLQKAAGSPTPTPTTPTPTPTTPTPTPTGSDLGKKLLEAARAGQDDEVRELLKAGADVNAKDEYGLTPLYLATAHGHLEIVEVLLKAGADVNAVDAIGFTPLHLAAFIGHLEIAEVLLKAGADVNAQDKFGKTPADIAAGAGNEDIAEVLQKAAGSPTPTPTTPTPTPTTPTPTPTGSDLGKKLLEAARAGQDDEVRELLKAGADVNAKDYFSHTPLHLAARNGHLKIVEVLLKAGADVNAKDFAGKTPLHLAANEGHLEIVEVLLKAGADVNAQDIFGKTPADIAADAGHEDIAEVLQKAA
notes: also called Protein #31-His
IC50, inhibition of BT474 cell proliferation (BrdU) (HER2 on BT474 cells [1]): 1.5 nM | Kd (human HER2 [2]): 0.027 nM

B4: Protein #14-His (designed binder)
chain: MRGSHHHHHHGSDLGKKLLEAARAGQDDEVRELLKAGADVNAKDYFSHTPLHLAARNGHLKIVEVLLKAGADVNAKDFAGKTPLHLAANEGHLEIVEVLLKAGADVNAQDIFGKTPADIAADAGHEDIAEVLQKAA
Kd [8]: < 100 nM | Kd (human serum albumin [9]): < 100 nM | Kd (mouse serum albumin): < 100 nM

B6: Protein #23-His (designed binder)
chain: MRGSHHHHHHGSDLGKKLLEAARAGQDDEVRELLKAGADVNAKDYFSHTPLHLAARNGHLKIVEVLLKAGADVNAKDFAGKTPLHLAANEGHLEIVEVLLKAGADVNAQDIFGKTPADIAADAGHEDIAEVLQKAAGSPTPTPTTPTPTPTTPTPTPTGSDLGVKLLWAAARGQDDEVRELLKAGADVNAKDFQGITPLHIAATNGHLEIVEVLLKAGADVNAKDITGETPLHHAADSGHLEIVEVLLKAGADVNAQDKAGVTPADLAAAWGHEDIAEVLQKAAGSPTPTPTTPTPTPTTPTPTPTGSDLGKKLLEAARAGQDDEVRELLKAGADVNAKDEYGLTPLYLATAHGHLEIVEVLLKAGADVNAVDAIGFTPLHLAAFIGHLEIAEVLLKAGADVNAQDKFGKTPADIAAGAGNEDIAEVLQKAAGSPTPTPTTPTPTPTTPTPTPTGSDLGKKLLEAARAGQDDEVRELLKAGADVNAKDYFSHTPLHLAARNGHLKIVEVLLKAGADVNAKDFAGKTPLHLAANEGHLEIVEVLLKAGADVNAQDIFGKTPADIAADAGHEDIAEVLQKAA
Kd (human HER2 [10]): 0.064 nM | IC50, inhibition of BT474 cell proliferation (BrdU) (HER2 on BT474 cells [1]): 2.4 nM

The next lines start with the values.

Kd (human HER2 [3]): 0.009 nM
B2: Protein #16-His (designed binder)
chain: MRGSHHHHHHGSDLGIKLLFAAAKGQDDEVRELLKAGADVNAKDFQGVTPLHIAAQSGHLEIVEVLLKAGADVNAKDVTGDTPLHLAAQHGHLEIVEVLLKAGADVNAQDERGWTPADLAADWGHEDIAEVLQKAA

EC50, induction of apoptosis in BT474 cells (Caspase 3/7 activation) (HER2 on BT474 cells [1]): 2.4 nM | Kd (human serum albumin [4]): 21 nM | binding result [5]: no binding | binding result [6]: no binding | phosphorylation AKT S124, fold change to PBS (mass spectrometry) (HER2 on BT474 cells [7]): 0.99 fold change to PBS | phosphorylation AKT S129, fold change to PBS (mass spectrometry) (HER2 on BT474 cells [7]): 0.93 fold change to PBS | phosphorylation RAF S642, fold change to PBS (mass spectrometry) (HER2 on BT474 cells [7]): 0.81 fold change to PBS | phosphorylation RAF T631/T638/T640/T641/S642, fold change to PBS (mass spectrometry) (HER2 on BT474 cells [7]): 0.48 fold change to PBS | phosphorylation RPS6KB1/S6Kinase S441/T444/S447, fold change to PBS (mass spectrometry) (HER2 on BT474 cells [7]): 0.63 fold change to PBS | phosphorylation RPS6KB1/S6Kinase T444/S447, fold change to PBS (mass spectrometry) (HER2 on BT474 cells [7]): 0.92 fold change to PBS | phosphorylation mTOR S2448/S2454, fold change to PBS (mass spectrometry) (HER2 on BT474 cells [7]): 0.79 fold change to PBS
B3: Protein #21 (designed binder)
chain: GSDLGKKLLEAARAGQDDEVRELLKAGADVNAKDYFSHTPLHLAARNGHLKIVEVLLKAGADVNAKDFAGKTPLHLAANEGHLEIVEVLLKAGADVNAQDIFGKTPADIAADAGHEDIAEVLQKAAGSPTPTPTTPTPTPTTPTPTPTGSDLGIKLLFAAAKGQDDEVRELLKAGADVNAKDFQGVTPLHIAAQSGHLEIVEVLLKAGADVNAKDVTGDTPLHLAAQHGHLEIVEVLLKAGADVNAQDERGWTPADLAADWGHEDIAEVLQKAAGSPTPTPTTPTPTPTTPTPTPTGSDLGKKLLEAARAGQDDEVRELLKAGADVNAKDEYGLTPLYLATAHGHLEIVEVLLKAGADVNAVDAIGFTPLHLAAFIGHLEIAEVLLKAGADVNAQDKFGKTPADIAAGAGNEDIAEVLQKAAGSPTPTPTTPTPTPTTPTPTPTGSDLGKKLLEAARAGQDDEVRELLKAGADVNAKDYFSHTPLHLAARNGHLKIVEVLLKAGADVNAKDFAGKTPLHLAANEGHLEIVEVLLKAGADVNAQDIFGKTPADIAADAGHEDIAEVLQKAA
notes: Untagged

Kd [8]: < 100 nM | Kd (human serum albumin [9]): < 100 nM | Kd (mouse serum albumin): < 100 nM
B5: Protein #13-His (designed binder)
chain: MRGSHHHHHHGSDLGKKLLEAARAGQDDEVRELLKAGADVNAKDYFSHTPLHLAARNGHLKIVEVLLKAGADVNAKDFAGKTPLHLAANDGHLEIVEVLLKAGADVNAQDIFGKTPADIAADAGHEDIAEVLQKAA

Kd (human HER2 [3]): 0.152 nM
B7: Protein #17-His (designed binder)
chain: MRGSHHHHHHGSDLGKKLLEAARAGQDDEVRELLKAGADVNAKDEYGLTPLYLATAHGHLEIVEVLLKAGADVNAVDAIGFTPLHLAAFIGHLEIAEVLLKAGADVNAQDKFGKTPADIAAGAGNEDIAEVLQKAA

From patent US20180155402A1 (Molecular Partners, published 2018)
